Patent US20140179593A1 (published 2014)
Where two headings read alike, the source gives them in different places. Starred links: 1 amine or outer side, 2 acyl side, 3 side chain; linkers in the order of their positions; H or OH if unused. Positions of bridges follow the written chain, without caps; N, C: chain ends. Non-standard residues stand in square brackets, D forms with d. αMeNva(5-ylidene) = C[C@@](CCC=[*:3])(N[*:1])C(=O)[*:2]; S8 = C=CCCCCCC[C@](C)(N)C(=O)O; SeMet = C[Se]CC[C@H](N)C(=O)O; S5 = C=CCCC[C@](C)(N)C(=O)O; Nle = CCCC[C@H](N)C(=O)O

Legend:
[1] = molecular target: T1, hDcn1^P (potentiating neddylation / PONY domain of human Dcn1, DCUN1D1) (Homo sapiens, UniProt Q96GG9 62-259); assay: ITC, two-site fit, first value
T1 construct: also called DCUN1D1^P; SCCRO PONY domain
Protocol: (§1) Protein samples were buffer matched by desalting over a NAP-5 column (GE Healthcare) into 50 mM Hepes, 125 mM NaCl, 1 mM BME, pH 7.0 (ITC buffer). Peptides were dissolved by weight to a final concentration of 10 mM in ITC buffer and diluted further in ITC buffer as required for the experiments. […] The peptide ligands (4 mM) were constantly injected (1.5 μl). The interval time between each injection was 3 minutes and the duration of each injection was 3 seconds. […] Peptide ligands (250 μM) were constantly injected (2.5 μl). The interval time between each injection was three minutes and the duration of each injection was 5 seconds. […] The interval time between each injection was 3 minutes and the duration of each injection was 5 seconds. Obtained spectra were evaluated using Origin (V 7.0) to determine heats of binding and Kd values.

[2] = molecular target: T1, hDcn1^P (potentiating neddylation / …); assay: ITC, two-site fit, second value
Protocol: as §1

[3] = molecular target: yDcn1^P (potentiating neddylation / PONY domain of Saccharomyces cerevisiae Dcn1) (Saccharomyces cerevisiae) (UniProt Q12395); assay: ITC, peptide titrated into yDcn1^P
[4] = molecular target: T2, yE1 for yNedd8 (Ula1-Uba3) (Saccharomyces cerevisiae, UniProt Q12059 1-462, limits assumed); assay: ITC, peptide titrated into yE1
T2 construct: Heterodimeric E1 expressed in E. coli as described in earlier publications
T2 sequence 1: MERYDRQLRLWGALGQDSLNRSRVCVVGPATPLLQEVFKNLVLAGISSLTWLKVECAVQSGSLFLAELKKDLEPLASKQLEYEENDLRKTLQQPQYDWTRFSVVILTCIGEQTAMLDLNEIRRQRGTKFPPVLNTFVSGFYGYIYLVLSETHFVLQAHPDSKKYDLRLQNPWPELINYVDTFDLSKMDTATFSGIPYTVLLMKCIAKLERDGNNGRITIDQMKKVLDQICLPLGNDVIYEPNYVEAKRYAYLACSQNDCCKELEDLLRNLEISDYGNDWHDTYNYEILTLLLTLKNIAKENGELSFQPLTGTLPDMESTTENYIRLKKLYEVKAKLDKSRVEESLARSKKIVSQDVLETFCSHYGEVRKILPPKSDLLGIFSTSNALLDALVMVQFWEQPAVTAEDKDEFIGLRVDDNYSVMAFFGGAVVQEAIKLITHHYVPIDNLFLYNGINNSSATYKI
T2 sequence 2: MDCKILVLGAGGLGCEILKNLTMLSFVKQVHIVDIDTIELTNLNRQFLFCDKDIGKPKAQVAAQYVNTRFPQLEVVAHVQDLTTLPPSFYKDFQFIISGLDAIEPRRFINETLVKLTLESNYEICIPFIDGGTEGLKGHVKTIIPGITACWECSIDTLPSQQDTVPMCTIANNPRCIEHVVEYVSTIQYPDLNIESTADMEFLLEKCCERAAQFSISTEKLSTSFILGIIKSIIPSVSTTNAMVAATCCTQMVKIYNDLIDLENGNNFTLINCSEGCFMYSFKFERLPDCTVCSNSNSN
Protocol: (§2) To gain insights into mechanistic roles of Ubc12 N-terminal acetylation, isothermal titration calorimetry (ITC) was used to quantify interactions with peptides corresponding to the N-termini of yeast or human Ubc12.
as §1

[5] = molecular target: T3, hDcn1^P (PONY domain of human Dcn1 / DCUN1D1 / SCCRO, residues 62 to 259) (Homo sapiens, UniProt Q96GG9 62-259); assay: ITC, peptide titrated into hDcn1^P
T3 construct: NEDD8 co-E3; Expressed as a GST fusion in E. coli; GST was removed with TEV protease; also called DCUN1D1^P
Protocol: as §2, §1

[6] = molecular target: T4, hE1 for Nedd8 (APPBP1-UBA3, NAE1-UBA3) (Homo sapiens, UniProt Q13564 18-534; Q8TBC4 22-463, limits assumed); assay: ITC, peptide titrated into hE1
T4 construct: Heterodimeric E1 expressed in E. coli as described in earlier publications
T4 sequence 1: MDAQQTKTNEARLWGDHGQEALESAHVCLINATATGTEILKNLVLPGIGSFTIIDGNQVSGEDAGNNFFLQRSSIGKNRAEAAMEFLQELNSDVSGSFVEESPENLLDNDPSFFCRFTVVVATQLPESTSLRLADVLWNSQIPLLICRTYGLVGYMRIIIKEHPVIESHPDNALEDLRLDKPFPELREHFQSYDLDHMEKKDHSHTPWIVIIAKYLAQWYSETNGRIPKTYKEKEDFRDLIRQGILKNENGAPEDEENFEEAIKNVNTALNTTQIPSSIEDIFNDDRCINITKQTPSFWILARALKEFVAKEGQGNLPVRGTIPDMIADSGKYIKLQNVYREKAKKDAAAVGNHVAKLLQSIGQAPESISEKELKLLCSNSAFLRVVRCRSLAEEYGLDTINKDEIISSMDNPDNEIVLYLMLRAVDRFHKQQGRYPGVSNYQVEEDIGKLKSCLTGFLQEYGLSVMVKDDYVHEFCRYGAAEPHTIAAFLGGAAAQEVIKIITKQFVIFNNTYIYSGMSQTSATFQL
T4 sequence 2: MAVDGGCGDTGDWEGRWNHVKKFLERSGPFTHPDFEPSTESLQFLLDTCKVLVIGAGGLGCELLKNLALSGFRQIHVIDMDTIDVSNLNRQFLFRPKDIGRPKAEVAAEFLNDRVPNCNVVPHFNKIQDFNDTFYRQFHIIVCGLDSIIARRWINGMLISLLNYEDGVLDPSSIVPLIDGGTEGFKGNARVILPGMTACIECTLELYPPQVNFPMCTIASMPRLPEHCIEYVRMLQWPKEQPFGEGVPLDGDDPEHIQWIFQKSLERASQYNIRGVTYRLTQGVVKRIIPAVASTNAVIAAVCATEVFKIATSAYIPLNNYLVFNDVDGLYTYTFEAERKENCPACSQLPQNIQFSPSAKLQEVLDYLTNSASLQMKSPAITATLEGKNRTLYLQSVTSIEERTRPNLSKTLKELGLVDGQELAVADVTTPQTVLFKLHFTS
Protocol: as §2, §1

[7] = molecular target: hDcn1^P (PONY domain of human Dcn1 / DCUN1D1 / SCCRO, residues 62 to 259) (Homo sapiens) (UniProt Q96GG9); assay: ITC, peptide titrated into hDcn1^P
[8] = molecular target: T4, hE1 for Nedd8 (APPBP1-UBA3, NAE1-UBA3); assay: ITC, peptide titrated into hE1; remark: listed apart in the source
Protocol: (§3) Specifically, Phe5 and Gln9 were replaced with (S)-2-(4′-pentenyl) alanine and these side-chains were covalently linked to test the effect of “stapling” an acetylated Ubc12 peptide into a helix (Bird et al. (2008) Methods Enzymol 446:369-386).
as §1

[9] = molecular target: T3, hDcn1^P (PONY domain of human Dcn1 / …); assay: ITC, peptide titrated into hDcn1^P; remark: listed apart in the source
Protocol: as §3, §1

[10] = molecular target: T5, hDcn3^P (PONY domain of human DCUN1D3) (Homo sapiens, UniProt Q8IWE4 86-304); assay: ITC, peptide titrated into Dcn PONY domain
T5 sequence: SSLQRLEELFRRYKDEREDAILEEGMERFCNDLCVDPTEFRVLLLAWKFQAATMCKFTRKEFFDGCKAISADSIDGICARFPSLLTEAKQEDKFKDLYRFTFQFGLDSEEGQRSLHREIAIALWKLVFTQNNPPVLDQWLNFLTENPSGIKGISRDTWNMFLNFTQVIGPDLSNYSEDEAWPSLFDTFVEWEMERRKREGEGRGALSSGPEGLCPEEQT
Protocol: as §1

[11] = molecular target: T1, hDcn1^P (potentiating neddylation / …); assay: ITC, peptide titrated into Dcn PONY domain
Protocol: as §1

[12] = molecular target: T6, hDcn5^P (PONY domain of human DCUN1D5) (Homo sapiens, UniProt Q9BTE7 47-237); assay: ITC, peptide titrated into Dcn PONY domain
T6 sequence: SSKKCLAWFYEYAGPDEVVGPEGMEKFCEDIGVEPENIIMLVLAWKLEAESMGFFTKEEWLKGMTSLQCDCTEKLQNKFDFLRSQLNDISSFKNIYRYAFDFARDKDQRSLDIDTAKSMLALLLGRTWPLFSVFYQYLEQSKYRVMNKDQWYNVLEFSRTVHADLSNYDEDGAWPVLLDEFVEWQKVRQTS
Protocol: as §1

[13] = molecular target: T7, hDcn4^P (PONY domain of human DCUN1D4) (Homo sapiens, UniProt Q92564 102-292); assay: ITC, peptide titrated into Dcn PONY domain
T7 sequence: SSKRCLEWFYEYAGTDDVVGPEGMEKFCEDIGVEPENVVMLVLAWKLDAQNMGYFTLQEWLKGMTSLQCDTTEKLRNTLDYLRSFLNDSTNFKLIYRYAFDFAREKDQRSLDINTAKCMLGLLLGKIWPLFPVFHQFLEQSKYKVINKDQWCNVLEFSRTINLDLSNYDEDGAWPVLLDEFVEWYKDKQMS
Protocol: as §1

Chain of hDcn1^P (PONY domain of human Dcn1 / DCUN1D1 / SCCRO, residues 62 to 259) (Homo sapiens) (Q96GG9 62-259): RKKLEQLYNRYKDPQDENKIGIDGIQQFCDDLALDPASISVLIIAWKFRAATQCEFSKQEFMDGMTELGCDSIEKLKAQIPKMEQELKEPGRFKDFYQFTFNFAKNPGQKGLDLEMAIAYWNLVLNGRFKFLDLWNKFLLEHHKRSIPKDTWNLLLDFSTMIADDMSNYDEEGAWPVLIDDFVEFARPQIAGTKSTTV
T1 sequence (Q96GG9 62-259): as above
T3 sequence (Q96GG9 62-259): as above

B1: hUbc12^Ac1-12 (Met) SS 6, 10 (peptide)
peptide: Ac-MIKLF[S5]LKQ[S5]KK-NH2
modifications: staple 6-10
notes: Stapled synthetic peptide; 'SS' is not explained in the text
Kd [1]: 1.8 nM
Kd [2]: 187 nM

B2: yUbc12^1-24 peptide (free N-terminus) (peptide)
peptide: H-MLKLRQLQKKKQKENENSSSIQPN-NH2
notes: Synthetic peptide, N-terminal extension of yeast Ubc12
N (stoichiometry) [3]: 1.16
ΔH [3]: 3.78 kcal/mol
ΔS [3]: 33.4 cal/mol/deg
Kd [4]: 70 nM
N (stoichiometry) [4]: 1.05
ΔH [4]: -8.57 kcal/mol
ΔS [4]: 2.65 cal/mol/deg

B3: Acetyl-hUbc12^1-26 peptide (peptide)
peptide: Ac-MIKLFSLKQQKKEEESAGGTKGSSKK-NH2
notes: Synthetic peptide; also called hUbc12^Ac1-26
Kd [5]: 1110 nM
ΔH [5]: -6.11 kcal/mol
ΔS [5]: 5.84 cal/mol/deg
Kd [6]: 943 nM
N (stoichiometry) [6]: 1.14
ΔH [6]: -9.43 kcal/mol
ΔS [6]: -4.79 cal/mol/deg

B4: hUbc12^1-26 peptide (free N-terminus) (peptide)
peptide: H-MIKLFSLKQQKKEEESAGGTKGSSKK-NH2
notes: Synthetic peptide, N-terminal extension of human Ubc12 (UBE2M)
N (stoichiometry) [7]: 0.75
ΔH [7]: 1.26 kcal/mol
ΔS [7]: 22.2 cal/mol/deg
Kd [6]: 585 nM
N (stoichiometry) [6]: 1.29
ΔH [6]: -8.88 kcal/mol
ΔS [6]: -1.99 cal/mol/deg

B5: Acetyl-hUbc12^1-12(5:9Staple) peptide (peptide)
peptide: Ac-MIKL[S5]SLK[S5]QKK-NH2
modifications: staple 5-9
notes: Printed as Ac-MIKLXSLKXQKK-NH2, X = 2-(4-pentenyl)alanine; Phe5 and Gln9 are replaced
binding result [8]: no binding
Kd [9]: 150 nM
ΔH [9]: -3.39 kcal/mol
ΔS [9]: 19.3 cal/mol/deg

Ac-[SeMet]IKLF[S5]LKQ[S5]KK-NH2 (staple 6-10, Stapled synthetic peptide) [hUbc12^Ac1-12 (SeMet) 6, 10]
Kd [1]: 0.93 nM
Kd [2]: 361 nM

B6: Acetyl-hUbc12^1-12 peptide (peptide)
peptide: Ac-MIKLFSLKQQKK-NH2
notes: Synthetic control peptide for the stapled peptide; also called hUbc12^Ac1-12
Kd [8]: 630 nM
ΔH [8]: -11.5 kcal/mol
ΔS [8]: -11 cal/mol/deg
ΔH [9]: -4.99 kcal/mol
ΔS [9]: 8.79 cal/mol/deg

B7: yUbc12^Ac1-12 (Met) 6, 10 (peptide)
peptide: Ac-MLKLR[S5]LQK[S5]KQ-NH2
modifications: staple 6-10
SMILES: CSCC[C@H](NC(C)=O)C(=O)N[C@@H](CC(C)C)C(=O)N[C@@H](CCCCN)C(=O)N[C@@H](CC(C)C)C(=O)N[C@@H](CCCNC(=N)N)C(=O)N[C@@]1(C)CCCC=CCCC[C@@](C)(C(=O)N[C@@H](CCCCN)C(=O)N[C@@H](CCC(N)=O)C(N)=O)NC(=O)[C@H](CCCCN)NC(=O)[C@H](CCC(N)=O)NC(=O)[C@H](CC(C)C)NC1=O
notes: Stapled synthetic peptide; also called Acetyl-yUbc12^1-12(6:10 Staple)
Kd [1]: 38 nM
Kd [2]: 37 nM

Ac-MIKLF[αMeNva(5-ylidene)]LKQ[S8]KK-NH2 (staple 6-10) [hUbc12^Ac1-12 (Met) But:Oct 6, 10]
Kd [10]: 1520 nM
Kd [11]: 120 nM
Kd [12]: 781 nM

Ac-MIKLFSLKQQKK-NH2 (also called Acetyl-hUbc12^1-12) [hUbc12^Ac1-12]
Kd [10]: 6300 nM
Kd [13]: 13100 nM

B8: hUbc12^Ac1-12 (NorLeu) 6, 10 (peptide)
peptide: Ac-[Nle]IKLF[S5]LKQ[S5]KK-NH2
modifications: staple 6-10
SMILES: CCCC[C@H](NC(C)=O)C(=O)N[C@H](C(=O)N[C@@H](CCCCN)C(=O)N[C@@H](CC(C)C)C(=O)N[C@@H](Cc1ccccc1)C(=O)N[C@@]1(C)CCCC=CCCC[C@@](C)(C(=O)N[C@@H](CCCCN)C(=O)N[C@@H](CCCCN)C(N)=O)NC(=O)[C@H](CCC(N)=O)NC(=O)[C@H](CCCCN)NC(=O)[C@H](CC(C)C)NC1=O)[C@@H](C)CC
notes: Stapled synthetic peptide
Kd [1]: 800 nM
Kd [2]: 1200 nM

B9: Acetyl-hUbc12^2-26 peptide (peptide)
peptide: Ac-IKLFSLKQQKKEEESAGGTKGSSKK-NH2
notes: Synthetic peptide lacking Met1; also called hUbc12^Ac-2-26
ΔH [5]: 1.72 kcal/mol
ΔS [5]: 24.1 cal/mol/deg
Kd [6]: 390 nM
N (stoichiometry) [6]: 1.04
ΔH [6]: -8.9 kcal/mol
ΔS [6]: -1.24 cal/mol/deg
